The record followed here is patent US20210071139A1.

The target of the first experiment is TOX (UniProt Q66JW3). The experiment in a line: TOX IP-MS, EL4 nuclear extract, MiST; row of the bait itself.
Sequence of TOX (Q66JW3 whole entry): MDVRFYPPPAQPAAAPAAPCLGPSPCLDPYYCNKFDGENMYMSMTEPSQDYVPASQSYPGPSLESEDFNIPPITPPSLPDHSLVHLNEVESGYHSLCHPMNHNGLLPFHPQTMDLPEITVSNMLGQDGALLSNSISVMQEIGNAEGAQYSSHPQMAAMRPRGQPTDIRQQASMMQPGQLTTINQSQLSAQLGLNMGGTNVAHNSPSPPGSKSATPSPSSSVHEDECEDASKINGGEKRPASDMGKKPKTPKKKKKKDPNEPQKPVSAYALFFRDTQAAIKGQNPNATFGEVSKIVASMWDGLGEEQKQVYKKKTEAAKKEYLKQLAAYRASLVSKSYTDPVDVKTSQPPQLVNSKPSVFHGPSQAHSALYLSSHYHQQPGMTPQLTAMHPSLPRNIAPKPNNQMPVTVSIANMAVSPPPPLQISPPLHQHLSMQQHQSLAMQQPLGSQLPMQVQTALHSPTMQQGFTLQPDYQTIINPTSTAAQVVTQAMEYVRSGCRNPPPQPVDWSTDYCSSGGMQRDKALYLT
On to anti-TOX antibody (Abcam, ab155768), for which the Abundance came out at 0.00704, the MiST Score was 0.976, the Reproducibility is 0.964 and the Specificity is 0.99.

For another experiment, the target named is TOX (UniProt Q66JW3). As to the kind of experiment: anti-TOX IP from EL4 nuclear extract, LC-MS/MS, MiST vs IgG control.
Substance Rsl1d1 (from UniProt Q8BVY0 1-452) registered an Abundance of 0.000211, a MiST Score of 0.759, a Reproducibility of 0.984 and a Specificity of 0.665.

For Gatad2a (from UniProt Q8CHY6 1-629), the Abundance was found to be 1.98e-05, the MiST Score turned out to be 0.76, the Reproducibility turned out to be 0.908 and the Specificity was determined as 0.7.

Turning to “Soat1 (from UniProt Q61263 1-540) (enzyme)”, the Abundance was 5.75e-06, the MiST Score worked out at 0.762, the Reproducibility is 0.249 and the Specificity was found to be 1.

As to Ebna1bp2 (from UniProt Q9D903 1-306), the Abundance is 9.4e-05, the MiST Score turned out to be 0.752, the Reproducibility worked out at 0.984 and the Specificity worked out at 0.654.

Turning to “Dld (from UniProt O08749 36-509) (enzyme)”, the Abundance is 1.87e-05, the MiST Score worked out at 0.76, the Reproducibility amounted to 0.898 and the Specificity came out at 0.704.

Substance Cwc15 (from UniProt Q9JHS9 2-229) had an Abundance of 9.35e-05, a MiST Score of 0.756, a Reproducibility of 0.814 and a Specificity of 0.736.

Nol7 (from UniProt Q9D7Z3 1-254) gave an Abundance of 0.000128, a MiST Score of 0.757, a Reproducibility of 0.972 and a Specificity of 0.666.
